Reference: patent publication US20230039487A1 (published 2023)
Substitutions are numbered along the chain they refer to.

T1: hBCMA ECD hFc (ACRO, BC7-H5254) (human, UniProt Q02223 1-54)
T1 chain: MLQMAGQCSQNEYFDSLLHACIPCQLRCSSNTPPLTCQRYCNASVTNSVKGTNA

T2: hu (human) BCMA ECD His (ACRO, BCA-H522y) (human, UniProt Q02223 1-54)
T2 chain: T1 chain

B1: R0317 (C11D5.3 BCMA mouse monoclonal antibody) (antibody, V domains shown)
VH: QIQLVQSGPELKKPGETVKISCKASGYTFTDYSINWVKRAPGKGLKWMGWINTETREPAYAYDFRGRFAFSLETSASTAYLQINNLKYEDTATYFCALDYSYAMDYWGQGTSVTVSS
VL: DIVLTQSPASLAMSLGKRATISCRASESVSVIGAHLIHWYQQKPGQPPKLLIYLASNLETGVPARFSGSGSGTDFTLTIDPVEEDDVAIYSCLQSRIFPRTFGGGTKLEIK
B2: 5E2 (antibody, V domains shown)
VH: EVQLQQSGPELIKPGASVKMSCKASGYTFTSYVVHWVKQKPGQGLEWIGYIIPYNDDTKYNEKFKGKATLTSDKSSSTAYMELSSLTSEDSAVYYCARWDYDDGYFDYWGQGTTLTVSS
VL: DVVMTQTPLSLPVTLGDQASISCRSSQSLLHSNGNTYLHWYLQKPGQSPKLLIYKVSNRFSGVPDRFSGSGSGTDFTLKISRVEAEDLGVYFCSQITHIPFTFGSGTKLEIKR
B3: 5F4 (antibody, V domains shown)
VH: EVQLQQSGPELIKPGASVKMSCKASAGKWERWAHWVKQKPGQGLEWIGYKPAYWTSAYNEKFKGKATLTSDKSSSTAYMELSSLTSEDSAVYYCATLDYDDGYFDYWGQGTTLTVSS
VL: EIVLTQSPGTLSLSPGERATLSCRASQSVSSSYLAWYQQKPGQAPRLLIYQASSDATGIPDRFSGSGSGTDFTLTISRLEPEDFAVYYCQQYGYPPSYTFGQGTKVEIK
B4: hu VH2-VL1 (antibody, V domains shown)
VH: QVQLVQSGAEVKKPGASVKMSCKASGYTFTSYVVHWVRQAPGQGLEWIGYIIPYNDDTKYNEKFKGRVTLTSDKSTSTAYMELSSLRSEDTAVYYCARWDYDDGYFDYWGQGTTVTVSS
VL: DVVMTQSPLSLPVTLGQPASISCRSSQSLLHSNGNTYLHWYLQKPGQSPQLLIYKVSNRFSGVPDRFSGSGSGTDFTLKISRVEAEDVGVYFCSQITHIPFTFGQGTKLEIK
B5: hu VH1-VL1 (antibody, V domains shown)
VH: B4 VH with R67K, V68A, T76S
VL: B4 VL
B6: hu VH1-VL3 (antibody, V domains shown)
VH: B4 VH with R67K, V68A, T76S
VL: DIVMTQTPLSLSVTPGQPASISCKSSQSLLHSNGNTYLHWYLQKPGQPPQLLIYKVSNRFSGVPDRFSGSGSGTDFTLKISRVEAEDVGVYYCSQITHIPFTFGQGTKLEIKR
B7: hu VH1-VL2 (antibody, V domains shown)
VH: B4 VH with R67K, V68A, T76S
VL: B4 VL with S7T, P12S, L15P, R24K

Molecular target: T1, hBCMA ECD hFc (ACRO, BC7-H5254)
Test: BLI (Fortebio)

Row | Binder | Kd [nM]
1 | B1 | < 0.001
2 | B2 | < 0.001
3 | B3 | < 0.001

Molecular target: T2, hu (human) BCMA ECD His (ACRO, …)
Test: ELISA

Row | Binder | EC50 [nM]
4 | B4 | 0.0506
5 | B5 | 0.0474
6 | B6 | 0.0545
7 | B7 | 0.0206
8 | B2 | 0.054

Molecular target: T1, hBCMA ECD hFc (ACRO, BC7-H5254)
Test: ELISA

Row | Binder | EC50 [nM]
9 | B1 | 0.32
10 | B2 | 0.279
11 | B3 | 0.305
